Article doi:10.64898/2025.12.15.694324

Target: PARP15^CAT WT, isolated catalytic domain of human PARP15, batch with His-tag (human)
Assay: native MS

stoichiometry N: 2
Substance: PARP15^CAT WT, isolated catalytic domain of human PARP15, batch with His-tag (domain or fragment)
